Data reported in the Immune Epitope Database (IEDB).

molecular target: HLA-A*68:02; assay: IEDB peptide-MHC binding, purified MHC/competitive/radioactivity; ≥ and ≤ were set here for values at or beyond the usual limits of such assays; settings: source organism: Influenza A virus

Sequence | IC50 [nM]
FNPMIVELA | 1620
TVSSFQDIL | 846

same assay, conditions: source organism: Mammarenavirus brazilense

Sequence | IC50 [nM]
RSASGGVYL | 4440

same assay, conditions: source organism: Mammarenavirus choriomeningitidis

Sequence | IC50 [nM]
SCDDVVFGI | 306

same assay, conditions: source organism: Mammarenavirus guanaritoense

Sequence | IC50 [nM]
LCFWSAIFFT | 1820
MNNVVQALT | 281

same assay, conditions: source organism: Mammarenavirus machupoense

Sequence | IC50 [nM]
KSYFTNAAL | 106
LNIALVAVSL | 520
SSWAVHWFS | 4100

same assay, conditions: source organism: Vaccinia virus WR

Sequence | IC50 [nM]
CTSEIQNVT | 90
DAEFVMCLEA | 1590
DIYDAVRAFL | 257
DTCLLAISA | 316
DTSNNIAEYI | 47
DVQRTRCKYV | 1460
EIARIENEM | 8.4
ELPYVGDTSM | 913
IASKINNNRI | 163
NIEIMDKEQL | 1380
NLEELTTVFI | 1300
NVSRVVECLT | 550
QIYLSDSDNI | 658
RAGYSIVEL | 1210
RTRCKYVGCT | 4690
TVGMLIYSM | 1790
VTTNNLLEQL | 2940
WLRAKRKPAM | 2860

molecular target: HLA-A*02:01; assay: as above; settings: source organism: Influenza A virus

Sequence | IC50 [nM]
LLLIVQALR | 3090
VLFQNWGI | 849

same assay, conditions: source organism: Mammarenavirus machupoense

Sequence | IC50 [nM]
KSYFTNAAL | 4970
LNIALVAVSL | 1250
LNKSDSSWAV | 1230

same assay, conditions: source organism: SARS-CoV1

Sequence | IC50 [nM]
IMLIIFWFSL | 3830
MLIIFWFSL | 1160

same assay, conditions: source organism: Vaccinia virus WR

Sequence | IC50 [nM]
ALWDSNFFT | 3690
DVQRTRCKYV | 1570
IAGIILLIL | 3220
KISVEKIKQT | 4670
LISILMIFI | 1290
NIEIMDKEQL | 4660
RAGYSIVEL | 5000
TVGMLIYSM | 809
VLTSVDIET | 136
VMDTLNGIMM | 33
VQLSNNKYVL | 4590
VQTLISLNSM | 259
VVYHDDDNTT | 2980

molecular target: HLA-A*02:02; assay: as above; settings: source organism: Influenza A virus

Sequence | IC50 [nM]
CAAMDDFQL | 1010
FNPMIVELA | 937
FVETLARSI | 382
GILHLILWIL | 4520
LLLIVQALR | 1490
TVSSFQDIL | 457
VLFQNWGI | 1560

same assay, conditions: source organism: Mammarenavirus brazilense

Sequence | IC50 [nM]
LNISGYNYSL | 77
RSASGGVYL | 278

same assay, conditions: source organism: Mammarenavirus choriomeningitidis

Sequence | IC50 [nM]
LSYSQTMLL | 2110
SCDDVVFGI | 2150

same assay, conditions: source organism: Mammarenavirus guanaritoense

Sequence | IC50 [nM]
LCFWSAIFFT | 2610
MNNVVQALT | 2290

same assay, conditions: source organism: Mammarenavirus machupoense

Sequence | IC50 [nM]
KSYFTNAAL | 593
LNIALVAVSL | 180
LNKSDSSWAV | 550
SSWAVHWFS | 4650

same assay, conditions: source organism: SARS-CoV1

Sequence | IC50 [nM]
IMLIIFWFSL | 1540
MLIIFWFSL | 132

same assay, conditions: source organism: Vaccinia virus WR

Sequence | IC50 [nM]
ALWDSNFFT | 1060
CTSEIQNVT | 188
DAEFVMCLEA | 2410
DIYDAVRAFL | 1460
DTCLLAISA | 4330
DTSNNIAEYI | 3330
DVQRTRCKYV | 1070
EIARIENEM | 335
ELPYVGDTSM | 4130
GARVIWMDA | 4600
IAGIILLIL | 4190
IASKINNNRI | 732
IISTDQDTM | 4300
KISVEKIKQT | 1230
LISILMIFI | 2370
NIEIMDKEQL | 3470
NIVTDLENRL | 261

Sequence | IC50 [nM]
NLEELTTVFI | 418
NQLDSSNKSM | 1780
NVSRVVECLT | 4660
PIPMSRLFM | 3890
QIYLSDSDNI | 1240
RAGYSIVEL | 4940
RTRCKYVGCT | 149
TQSGALEVLM | 836
TVGMLIYSM | 490
VLTSVDIET | 382
VMDTLNGIMM | 7.6
VQLSNNKYVL | 288
VQTLISLNSM | 1560
VTTNNLLEQL | 4690
VVYHDDDNTT | 1860
WLRAKRKPAM | 4670
YVHSLLYSSM | 2200

molecular target: HLA-A*02:06; assay: as above; settings: source organism: Influenza A virus

Sequence | IC50 [nM]
CAAMDDFQL | 2100
FVETLARSI | 4330
GILHLILWIL | 2540
LLLIVQALR | 3150
VLFQNWGI | 2640

same assay, conditions: source organism: Mammarenavirus brazilense

Sequence | IC50 [nM]
LNISGYNYSL | 1100

same assay, conditions: source organism: Mammarenavirus choriomeningitidis

Sequence | IC50 [nM]
LSYSQTMLL | 3720

same assay, conditions: source organism: Mammarenavirus machupoense

Sequence | IC50 [nM]
LNKSDSSWAV | 2190

same assay, conditions: source organism: SARS-CoV1

Sequence | IC50 [nM]
MLIIFWFSL | 490

same assay, conditions: source organism: Vaccinia virus WR

Sequence | IC50 [nM]
GARVIWMDA | 2140
IISTDQDTM | 2360
NIVTDLENRL | 1550
NQLDSSNKSM | 635
TQSGALEVLM | 2230
VLTSVDIET | 14
VMDTLNGIMM | 403
VQLSNNKYVL | 170
VQTLISLNSM | 853
VVYHDDDNTT | 3920
YVHSLLYSSM | 2250

molecular target: HLA-A*68:02; assay: IEDB peptide-MHC binding, cellular MHC/competitive/fluorescence; ≥ and ≤ were set here for values at or beyond the usual limits of such assays; settings: source organism: Influenza A virus

Sequence | IC50 [µM]
CAAMDDFQL | 5.07
FVETLARSI | 11.7
GILHLILWIL | 8.03
LLLIVQALR | 42.4
VLFQNWGI | 54.8

same assay, conditions: source organism: Mammarenavirus brazilense

Sequence | IC50 [µM]
LNISGYNYSL | 12.9

same assay, conditions: source organism: Mammarenavirus choriomeningitidis

Sequence | IC50 [µM]
LSYSQTMLL | 6.76

same assay, conditions: source organism: Mammarenavirus machupoense

Sequence | IC50 [µM]
LNKSDSSWAV | 8.7

same assay, conditions: source organism: SARS-CoV1

Sequence | IC50 [µM]
IMLIIFWFSL | ≥ 70
MLIIFWFSL | 6.91

same assay, conditions: source organism: Vaccinia virus WR

Sequence | IC50 [µM]
ALWDSNFFT | 7.41
GARVIWMDA | 12
